In patent US20170052184A1 (published 2017):
Substitutions are numbered along the chain they refer to.

B1: HCV 208A-1064 (antibody, V domains shown)
VH: EVQLQQSGPELVKPGASVKISCKTSGYTFTEYAMHWMKQSHGKSLEWIGGINPTNGDTIYNQKFKDKAKLTVDRSSSTAYMELRSLTSDDSALFYCARRELDYFASWGQGTTLTVSS
VL: DIVLTQSPASLIVSLGQTATISCRASQSVSTSRFSYLHWIQQKPGQPPKLLIKYASNLESGVPVRFSGSGSGTDFTLNIHPVEEEDTATYFCQHSWEFPFTFGSGTKLKIKR
B2: HCV 208A-293 (antibody, V domains shown)
VH: B1 VH with T24A, Y27F, T58A, A105P
VL: B1 VL with T18R, L37V, T76I, K109E
B3: HCV 208B-1094 (antibody, V domains shown)
VH: B1 VH with K63R
VL: B1 VL with V29L, L37V
B4: HCV 208A-920 (antibody, V domains shown)
VH: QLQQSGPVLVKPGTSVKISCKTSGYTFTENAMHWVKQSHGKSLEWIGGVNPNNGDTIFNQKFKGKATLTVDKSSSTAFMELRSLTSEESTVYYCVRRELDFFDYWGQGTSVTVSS
VL: B1 VL with I12A, T18R, F34Y, L37M, I40Y, V64A, E83A, T89A, F91Y, K109E
B5: HCV 208A-110 (antibody, V domains shown)
VH: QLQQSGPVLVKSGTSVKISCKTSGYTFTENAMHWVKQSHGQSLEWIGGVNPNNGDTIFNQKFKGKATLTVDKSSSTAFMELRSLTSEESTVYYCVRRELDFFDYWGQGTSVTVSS
VL: B1 VL with I12A, T18R, F34Y, L37M, I40Y, V64A, E83A, T89A, F91Y, K109E
B6: HCV 208A-126 (antibody, V domains shown)
VH: QLQQSGPVLVKPGASVMISCKTSGYTFTENAMHWVKQSHGKSLEWIGGVNPNNGDTIFNQKFKGKATLTVDKSSNTAFTELRSLPSEESTVYYCVRRGLDFFDYWGQGTSVTVSS
VL: B1 VL with I12A, T18R, F34Y, L37M, I40Y, V64A, E83A, T89A, F91Y, K109E
B7: HCV 208A-133 (antibody, V domains shown)
VH: B6 VH with K11G, K36E, N75S, T79M, L81F, P85T, G98E
VL: B1 VL with I12A, T18R, F34Y, L37M, I40Y, V64A, E83A, F91Y, K109E
B8: HCV 208A-159 (antibody, V domains shown)
VH: B6 VH with V8A, L9Q, G64D, T67A, N75S, T79M, P85T, G98E
VL: DIVLTQSPASLAVSLGQRATISCRASQSVSTSRYSYVHWYQQKPGQPPKLLIKYAANLESGVPARFSGSGSGTDFTLNIHPVAEEDAAAYYCQHSWEFPFTFGSGTKLEIKR
B9: HCV 208A-334 (antibody, V domains shown)
VH: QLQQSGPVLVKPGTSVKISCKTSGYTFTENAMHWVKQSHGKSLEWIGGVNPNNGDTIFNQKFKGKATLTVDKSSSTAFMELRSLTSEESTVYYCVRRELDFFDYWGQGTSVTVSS
VL: B8 VL with V37M, A56S, A87T, E97G
B10: HCV 208A-741 (antibody, V domains shown)
VH: B6 VH with N75S, T79M, P85T, G98E
VL: B8 VL with A19T, R24G, Y34F, V37M, A56S, A87T
B11: HCV 208B-251 (antibody, V domains shown)
VH: B6 VH with M17K, F58Y, N75S, T79M, P85T, T90P, Y93F, G98E
VL: B8 VL with Q17K, R18K, V37M, Q46H, A56S, A87T
B12: HCV 208B-556 (antibody, V domains shown)
VH: B6 VH with N75S, T79M, L81F, P85T, G98E
VL: B8 VL with V37M, A56S, A87T, A89T
B13: HCV 208A-352 (antibody, V domains shown)
VH: QGQMQQSGAELVKPGASVKLSCKTSGFTFSSSFISWLKQKPGQSLEWIAWIYAGTGNTNYNQKFTDKAQLTVDTSSSTAYMQFSSLTTEDSAIYYCAISGTGFTYWGQGTLVTVSA
VL: DVLMAQTPLSLPVTLGDQASISCRSSQSLVHSNGNTYLEWFLQKPGQSPKLLIYNVSNRFSGVPDRFSGSGSGTDFTLKISRVEAEDLGVYYCFQGSHVPLTFGSGTKLEIKR
B14: HCV 208A-983 (antibody, V domains shown)
VH: B13 VH with F33Y, I34F, N59I, S75A, Y80F, F83L, T88I
VL: B13 VL with A5T, T14N, V30L, L101F, E110A
B15: HCV 208B-281 (antibody, V domains shown)
VH: B13 VH with M4L, F33Y, K40R, N57G, T104I
VL: B13 VL with A5T, T14S, S32N, N55K, L101F
B16: HCV 208A-983 (antibody, V domains shown)
VH: B13 VH with F33Y, I34F, N59I, S75A, Y80F, F83L, T88I
VL: B13 VL with A5T, T14N, V30L, L101F, E110A
B17: HCV 208A-422 (antibody, V domains shown)
VH: DVQLQESGPGLVNPSQSLSLTCSVTGYSITSGYYWIWIQQSPGNKLEWMGYIKYDGGNNYSPSLKNRISIARDTSKNQCFLKLNSVTIEDTATYYCTRGSDSFDYWGQGTTLTVSS
VL: DIVLTQSPASLAVSLGQRAIISCKASQSVSFAGTNLMHWYQQKPGQQPKLLIYRASNLETGVPTRFSGSGSRTDFTLNIHPVEEDDAATYYCQQSREYYTFGGGTKLEIKR
B18: HCV 208A-442 (antibody, V domains shown)
VH: B17 VH with Q39R, S41F, C79F
VL: B17 VL
B19: HCV 208B-174 (antibody, V domains shown)
VH: EVKLEESGGGLVQPGGSMKLSCVASGFSFSSYWMSWVRQSPEKGLDWVAEIRLRSDNYATHYAESVKGRFTISRDDSISRLYLQMNTLRAEDTGIYYCTWMTYWGQGTLVTVSA
VL: QNVLTQSPAIMSASPGEKVTMSCSASSSVTYMFWYQLKPESSPRLLIYDTSNLASGVPVRFSGSGSGTSYSLTISRMEAEDAATYYCQEWSSYPLTFGAGTKLDLKR
B20: HCV 208B-471 (antibody, V domains shown)
VH: QGQLQQSGPVLVKPGASEILYCKTSGFTFSSTYISWLKQKPGQSLEWIAWIYAGTGATNYNQKFTGKAQLTVDASSNTAYMHFSGLTPEDSAIYYCAISGAGVYWGQGTLVTVSA
VL: B13 VL with L3V, A5T, T14S, V30L, F41Y, K50N, T77A, E84G, S105A, I111L
B21: HCV 208A-557 (antibody, V domains shown)
VH: B13 VH with F33Y, F83L
VL: B8 VL with V3A, V37M, K49E, A56S, A83G, A87T, A89T, E97D
B22: HCV 208B-560 (antibody, V domains shown)
VH: EVQLQQSGPELEKPGASVKISCKTSGYTFTEYAMHWVKQSHGMSLEWIGGINPSNGNAIYNQIFKDKATLTVDRSSSTAYMGLRSLTFGDSGVYFCVRRQLDFFDYWGQGASLTVSS
VL: B8 VL with L4V, V37L, A56S, A83G, A87T, A89T
B23: HCV 208A-692 (antibody, V domains shown)
VH: B13 VH with V12A, F33Y, Y52F, F83L
VL: EVLMTQSPLSLPVSLGDQASISCRSSQSLEHSNGNTYLEWFLQRPGQPPKLLIYKVSSRFSGVPDRFSGSGSGTDFTLKISRVEAEDLGVYYCFQGSHVPFTFGSGTKLAIKR
B24: HCV 208B-1096 (antibody, V domains shown)
VH: QVQLQQSGAGLAKPGASVKMSCKASGYTFTANKMHWAKQRPGQGLEWIGYIDPSSGYTEYNHKIQYKATLTADTSSSTAYMQLSTLTFEDSAVYYCTNFAYWGQGTLVTVSA
VL: DIVMTQTPLTLSVTIGQPASISCKSSQSLLFTNGKTYLNWFLQRPGQSPKRLIYLLSKLDSGVPDRFSGSGSGTDFTLKISRVEAEDLGVYYCLQSTYFPLTFGAGTKLELKR
B25: HCV 208B-408 (antibody, V domains shown)
VH: EVKLVESGGGLVQPGGSLRLSCASSGFTFTDYYMSWVRQPPGKALEWLGFIRNKAYGYTTEFSASVNGRFTISRDDSQSVPYLQMNTLRAEDSATYYCARVLYYDYGGFAYWGQGTLVTVST
VL: DIQMTQSPASLSASVGETVTITCRASGNIHTYLAWYQQKQGKSPQLLVYNANTLADGVPSRFSGSGSGTQFSLKINSLQPDDFGSYYCQHFWSAPWTFGGGTQLEIKR

Tests used:
[1] = biological target: T1, HCV bt-134-154 (Peptide 1, HCVc 134-154) (Hepatitis C virus (numbering per HCV-1), biotin (carboxy-terminal per; N-terminal per)); assay: EIA, captured mAb + biotin peptide
T1 peptide: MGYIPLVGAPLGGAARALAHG

[2] = biological target: T2, HCV bt-141-161 (Peptide 2, HCVc 141-161) (Hepatitis C virus (numbering per HCV-1), biotin (carboxy-terminal per; N-terminal per)); assay: EIA, captured mAb + biotin peptide
T2 peptide: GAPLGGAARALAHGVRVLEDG

[3] = biological target: T3, HCV bt-151-171 (Peptide 3, HCVc 151-171) (Hepatitis C virus (numbering per HCV-1), biotin (carboxy-terminal per; N-terminal per)); assay: EIA, captured mAb + biotin peptide
T3 peptide: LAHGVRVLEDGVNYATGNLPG

[4] = biological target: T4, HCV Core 134-171-TT Peptide (hepatitis C virus (HCV-1 numbering) …); assay: SPR, captured mAb, peptide analyte
T4 construct: also called ALRZ-9 peptide

Binder | Reactivity (OD 492 nm) [1] [OD units] | Reactivity (OD 492 nm) [2] [OD units] | Reactivity (OD 492 nm) [3] [OD units] | Kd [4] [nM] | koff [4] [s⁻¹] | kon [4] [M⁻¹ s⁻¹]
B1 | 0.1 | 3.5 | 0.12 |  |  | 
B2 | 0.08 | 2.42 | 0.11 |  |  | 
B3 | 0.12 | 3.28 | 0.13 |  |  | 
B4 | 0.17 | 4 | 0.08 |  |  | 
B5 | 0.07 | 2.88 | 0.11 |  |  | 
B6 | 0.2 | 2.08 | 0.1 |  |  | 
B7 | 0.1 | 3.68 | 0.13 |  |  | 
B8 | 0.15 | 3.77 | 0.19 |  |  | 
B9 | 0.05 | 3.07 | 0.05 |  |  | 
B10 | 1.2 | 3.37 | 0.06 |  |  | 
B11 | 0.11 | 2.35 | 0.41 |  |  | 
B12 | 0.13 | 3.07 | 0.18 |  |  | 
B13 | 1.08 | 0.07 | 0.06 |  |  | 
B14 | 3.03 | 0.4 | 0.05 |  |  | 
B15 | 1.48 | 0.16 | 0.12 |  |  | 
B16 |  |  |  | 0.46 | 4.6e-05 | 97000
B17 | 0.05 | 0.84 | 0.1 |  |  | 
B18 | 0.08 | 3.04 | 0.06 |  |  | 
B19 |  |  |  | 0.25 | 0.00018 | 760000
B20 |  |  |  | 0.25 | 5.5e-05 | 220000
B21 | 0.05 | 2.41 | 0.06 |  |  | 
B22 | 0.11 | 3.9 | 0.14 |  |  | 
B23 | 3.67 |  | 0.07 |  |  | 
B24 |  | 0.13 | 3.56 |  |  | 
B25 | 0.81 |  | 0.16 |  |  | 
